B1: 212 (protein)
chain: MTTRTRILTAFLSLLAANACAADAAPAAPHTVVLRAARMFDGASGKLVDPPQLTIVGNKIVRIAQGDKAEVPAGAEVVDLGDATLLPGFIDAHVHLSGQSSDNWYGDFFDNMMRFPAEQALYGAYYARITLEAGFTSVRDVGSTDWVALGLRNAIDAGKVPGPRMLVSNYAVGSTGGHADQDPIPPHKLPLAGPLQGVCNGPEECRAAVRYQIKYGANVIKFMPSGGVLSLSDPVDAPELSQDEMNAVIGESHAWGRKVAAHAHGDKAAKMAVAAGVDSIEHGSFIEDDTLRAMKAKNVYLVPTISAIAHVEEKIGTFPPVIAEKGRAAAAHLRQTFRHAVQIGVPIALGTDAGVGAHGSNAREFRYMVENGLTPAQALLAGTANAARLLGTFDRVGTLEAGKLADVVAVPGNPIADITVTERPLFVMKDGVVVRRDAVR
modifications: exemplary polypeptide
B2: 233 (protein)
chain: MTTRTRILTAFLSLLAANACAADAAPAAPHTVVLRAARMFDGASGKLVDHPQLTIVGNKIVRIAQGDKAEVPAGAEVVDLGDATLLPGFIDAHVHLSGQSSDNWYGDFFDNMMRFPAEQALYGAYYARITLEAGFTSVRDVGSTDWVALGLRNAIDAGKVPGPRMLVSNYAVGSTGGHADQDPIPPHKLPLAGPLQGVCNGPEECRAAVRYQIKYGANVIKFMPSGGVLSLSSPVDAPELSQDEMNAVIGESHAWGRKVAAHAHGDKAAKMAVAAGVDSIEHGSFIEDDTLRAMKAKNVYLVPTISAIAHVEEKIGTFPPVIAEKGRAAAAHLRQTFRHAVQIGVPIALGTDAGVGAHGSNAREFRYMVENGLTPAQALLAGTANAARLLGTFDRVGTLEAGKLADVVAVPGNPIADITVTERPLFVMKDGVVVRRDAVR
modifications: exemplary polypeptide
B3: 236 (protein)
chain: MTTRTRILTAFLSLLAANACAADAAPAAPHTVVLRAARMFDGASGKLVDHPQLTIVGNKIVRIAQGDKAEVPAGAEVVDLGDATLLPGFIDAHVHLSGQSSDNWYGDFFDNMMRFPAEQALYGAYYARITLEAGFTSVRDVGSTDWVALGLRNAIDAGKVPGPRMLVSNYAVGSTGGHADQDPIPPHKLPLAGPLQGVCNGPEECRAAVRYQIKYGANVIKFMPSGGVLSLSDPVDAPELSQDEMNAVIGESHAWGRKVAAHAHGDKAAKMAVAAGVDSIEHGDFIEDDTLRAMKAKNVYLVPTISAIAHVEEKIGTFPPVIAEKGRAAAAHLRQTFRHAVQIGVPIALGTDAGVGAHGSNAREFRYMVENGLTPAQALLAGTANAARLLGTFDRVGTLEAGKLADVVAVPGNPIADITVTERPLFVMKDGVVVRRDAVR
modifications: exemplary polypeptide
B4: 228 (protein)
chain: MTTRTRILTAFLSLLAANACAADAAPAAPHTVVLRAARMFDGASGKLVDHPQLTIVGNKIVRIAQGDKAEVPAGAEVVDLGDATLLPGFIDAHVHLSGQSSDNWYGDFFDNMMRFPAEQALYGAYYARITLEAGFTSVRDVGSTDWVALGLRNAIDAGKVPGPRMLVSNYAVGSTGGHADQDPIPPHKLPLAGPLQGVCNGPEECRAAVRYQIKYGANVIKFMPSGGVLDLSDPVDAPELSQDEMNAVIGESHAWGRKVAAHAHGDKAAKMAVAAGVDSIEHGSFIEDDTLRAMKAKNVYLVPTISAIAHVEEKIGTFPPVIAEKGRAAAAHLRQTFRHAVQIGVPIALGTDAGVGAHGSNAREFRYMVENGLTPAQALLAGTANAARLLGTFDRVGTLEAGKLADVVAVPGNPIADITVTERPLFVMKDGVVVRRDAVR
modifications: exemplary polypeptide
B5: 215 (protein)
chain: MTTRTRILTAFLSLLAANACAADAAPAAPHTVVLRAARMFDGASGKLVDHPQLTIVGNKIVRIAQGDKAEVPAGAEVVDLGDATLLPGFIDAHVHLSGQSSDLWYGDFFDNMMRFPAEQALYGAYYARITLEAGFTSVRDVGSTDWVALGLRNAIDAGKVPGPRMLVSNYAVGSTGGHADQDPIPPHKLPLAGPLQGVCNGPEECRAAVRYQIKYGANVIKFMPSGGVLSLSDPVDAPELSQDEMNAVIGESHAWGRKVAAHAHGDKAAKMAVAAGVDSIEHGSFIEDDTLRAMKAKNVYLVPTISAIAHVEEKIGTFPPVIAEKGRAAAAHLRQTFRHAVQIGVPIALGTDAGVGAHGSNAREFRYMVENGLTPAQALLAGTANAARLLGTFDRVGTLEAGKLADVVAVPGNPIADITVTERPLFVMKDGVVVRRDAVR
modifications: exemplary polypeptide
B6: 226 (protein)
chain: MTTRTRILTAFLSLLAANACAADAAPAAPHTVVLRAARMFDGASGKLVDHPQLTIVGNKIVRIAQGDKAEVPAGAEVVDLGDATLLPGFIDAHVHLSGQSSDNWYGDFFDNMMRFPAEQALYGAYYARITLEAGFTSVRDVGSTDWVALGLRNAIDAGKVPGPRMLVSNYAVGSTGGHADQDPIPPHKLPLAGPLQGVCNGPEECRAAVRYQIKYGANVIKFMPSPGVLSLSDPVDAPELSQDEMNAVIGESHAWGRKVAAHAHGDKAAKMAVAAGVDSIEHGSFIEDDTLRAMKAKNVYLVPTISAIAHVEEKIGTFPPVIAEKGRAAAAHLRQTFRHAVQIGVPIALGTDAGVGAHGSNAREFRYMVENGLTPAQALLAGTANAARLLGTFDRVGTLEAGKLADVVAVPGNPIADITVTERPLFVMKDGVVVRRDAVR
modifications: exemplary polypeptide
B7: 223 (protein)
chain: MTTRTRILTAFLSLLAANACAADAAPAAPHTVVLRAARMFDGASGKLVDHPQLTIVGNKIVRIAQGDKAEVPAGAEVVDLGDATLLPGFIDAHVHLSGQSSDNWYGDFFDNMMRFPAEQALYGAYYARITLEAGFTSVRDVGSTDWVALGLRNAIDAGKVPGPRMLVSNYAVGSTGGHADQDPIPPHELPLAGPLQGVCNGPEECRAAVRYQIKYGANVIKFMPSGGVLSLSDPVDAPELSQDEMNAVIGESHAWGRKVAAHAHGDKAAKMAVAAGVDSIEHGSFIEDDTLRAMKAKNVYLVPTISAIAHVEEKIGTFPPVIAEKGRAAAAHLRQTFRHAVQIGVPIALGTDAGVGAHGSNAREFRYMVENGLTPAQALLAGTANAARLLGTFDRVGTLEAGKLADVVAVPGNPIADITVTERPLFVMKDGVVVRRDAVR
modifications: exemplary polypeptide
B8: 229 (protein)
chain: MTTRTRILTAFLSLLAANACAADAAPAAPHTVVLRAARMFDGASGKLVDHPQLTIVGNKIVRIAQGDKAEVPAGAEVVDLGDATLLPGFIDAHVHLSGQSSDNWYGDFFDNMMRFPAEQALYGAYYARITLEAGFTSVRDVGSTDWVALGLRNAIDAGKVPGPRMLVSNYAVGSTGGHADQDPIPPHKLPLAGPLQGVCNGPEECRAAVRYQIKYGANVIKFMPSGGVLPLSDPVDAPELSQDEMNAVIGESHAWGRKVAAHAHGDKAAKMAVAAGVDSIEHGSFIEDDTLRAMKAKNVYLVPTISAIAHVEEKIGTFPPVIAEKGRAAAAHLRQTFRHAVQIGVPIALGTDAGVGAHGSNAREFRYMVENGLTPAQALLAGTANAARLLGTFDRVGTLEAGKLADVVAVPGNPIADITVTERPLFVMKDGVVVRRDAVR
modifications: exemplary polypeptide
B9: 222 (protein)
chain: MTTRTRILTAFLSLLAANACAADAAPAAPHTVVLRAARMFDGASGKLVDHPQLTIVGNKIVRIAQGDKAEVPAGAEVVDLGDATLLPGFIDAHVHLSGQSSDNWYGDFFDNMMRFPAEQALYGAYYARITLEAGFTSVRDVGSTDWVALGLRNAIDAGKVPGPRMLVSNYAVGSTGGHADQDPIPPHDLPLAGPLQGVCNGPEECRAAVRYQIKYGANVIKFMPSGGVLSLSDPVDAPELSQDEMNAVIGESHAWGRKVAAHAHGDKAAKMAVAAGVDSIEHGSFIEDDTLRAMKAKNVYLVPTISAIAHVEEKIGTFPPVIAEKGRAAAAHLRQTFRHAVQIGVPIALGTDAGVGAHGSNAREFRYMVENGLTPAQALLAGTANAARLLGTFDRVGTLEAGKLADVVAVPGNPIADITVTERPLFVMKDGVVVRRDAVR
modifications: exemplary polypeptide

Assay: OTA detoxification activity assay (specific activity, fluorescence reduction ex/em 390/450 nm)
Format: biochemical
Conditions: SEQ ID NO: 1 = 100%
Protocol: To determine the specific activity of recombinant target polypeptides produced e.g. as described in Example 2 above in units per liter (U/L), ochratoxin A (OTA) detoxification activity assays were performed. One unit is defined as the amount of enzyme necessary for degradation of 1 μmol or OTA in 1 min when using a starting OTA concentration of […].
OTA detoxification activity assays were set up in a final volume of the reaction mixture of […], containing the recombinant enzyme preparation (preferably diluted to yield a volumetric activity of 1-10 mU/L), and 200 ng/mL OTA in 100 mM sodium phosphate buffer.
Specific activities were determined at pH 6.0 and pH 7.5. As soon as all components of the reaction mixture were mixed, OTA degradation was followed at 37° C. on a fluorescence spectrophotometer (BioTek Synergy H1 MFD Multimode microplate reader) by following the reduction in fluorescence at ex/em 390 nm/450 nm. For work performed at pH 6.0 and 7.5, a 100 mM sodium phosphate buffer was used.
For calculation of the specific activity, the initial linear part of the recorded fluorescence reduction curve was used. In addition to the fluorescence-based method described above, OTA degradation was also determined by using the HPLC-MS method as described by Dellafiora et al. 2020, Toxins 12, 258, essentially confirming the fluorescence-based results. Genes encoding either of the indicated SEQ ID NOs are expressed as described herein and the specific activities for the obtained polypeptide preparation are exemplarily shown in Table 8. Analogously, enzymatic activities using either ochratoxin B, C or TA as substrate or can be found.

Molecule	Specific OTA detoxification activities in % compared to the enzyme of SEQ ID NO: 1, pH 6.0 [%]	Specific OTA detoxification activities in % compared to the enzyme of SEQ ID NO: 1, pH 7.5 [%]
B1	46	17
B2	11	17
B3	19	15
B4	23	19
B5	27	20
B6	19	22
B7	14	16
B8	21	15
B9	8	20

Reference: US20240352438A1, “MEANS AND METHODS FOR DETOXIFYING OCHRATOXIN A” (DSM Austria GmbH, priority 2021, published 2024)
